Measured values from patent publication US20040072168A1, “Novel deoxynucleoside kinase enzyme variants” (priority 2000, published 2004).

What was measured:
[1] = tested on: TK deficient E. coli strain KY895; test: Determination of LD100 of nucleoside analogues on M9 plates, E. coli KY895 transformed with kinase variant plasmids; format: cell-based; conditions: KY895 expressing the variant
Text: The mutagenized PCR fragments were purified by the PCR Kit from Boehringer Mannhein, cut with BamHI and EcoRI and sub-cloned into the multiple cloning site of the pGEX-2T plasmid vector. The TK deficient E. coli strain KY895 [F tdk-1 ilv] [Igarashi K, Hiraga S & Yura T: A deoxythymidine kinase deficient mutant of Eschericha coli. II. Mapping and transduction studies with phage Φ80; Genetics 1967 57 643-6541, was electro-transformed with the ligation mix, using standard techniques, and plated on LB-ampicillin (100 μg/ml) plates.
Overnight cultures of these colonies were diluted 200-fold in 10% glycerol and 2 μl drops of the dilution were spotted on M9 minimal medium plates [Ausubel F, Brent R, Kingston R E, Moore D D, Seidman J G, Smith J A & Struhl K (Eds.): Short protocols in molecular biology; Wiley, USA, 3rd Edition, 1995, p.1-2] supplemented with 0.2% glucose, 40 μg/ml isoleucine, 40 μg/ml valine, 100 μg/ml ampicillin and with or without nucleoside analogues.
All clones with increased sensitivity towards at least one nucleoside analogue were tested on M9 plates with logarithmic dilution of the nucleoside analogues to determine the lethal dose (LD100) of the nucleoside analogues, at which no growths of bacteria could be seen.
Plates were prepared by mixing the medium with the analogues at the lowest temperature possible, before pouring the plates.

[2] = cited from earlier work

B1: Dm-dNK: wild-type Drosophila melanogaster deoxyribonucleoside kinase (SEQ ID NO: 1) (protein)
chain: MAEAASCARKGTKYAEGTQPFTVLIEGNIGSGKTTYLNHFEKYKNDICLLTEPVEKWRNVNGVNLLELMYKDPKKWAMPFQSYVTLTMLQSHTAPTNKKLKIMERSIFSARYCFVENMRRNGSLEQGMYNTLEEWYKFIEESIHVQADLIIYLRTSPEVAYERIRQRARSEESCVPLKYLQELHELHEDWLIHQRRPQSCKVLVLDADLNLENIGTEYQRSESSIFDAISSNQQPSPVLVSPSKRQRVAR
modifications: Drosophila melanogaster; CDS (1)..(750)
[1]; lethal dose (no growth of bacteria) of araC, range 3.16-1000 μM
  LD100 araC: 1000 µM
[1]; lethal dose of 2CdA, range 0.0316-100 μM, second line of last column
  LD100 2CdA: 100 µM
[1]; lethal dose of AZT, range 0.01-100 μM
  LD100 AZT: 100 µM
[1]; lethal dose of araA, range 10-1000 μM, third line of last column
  LD100 araA: >1000 µM
[1]; lethal dose of ddA, range 0.316-31.6 μM
  LD100 ddA: 31.6 µM
[1]; lethal dose of ddC, range 10-3500 μM, first line of last column
  LD100 ddC: >3500 µM
[2]; depending on the substrate
  catalytic rate of deoxyribonucleoside phosphorylation, higher than reported for any of the mammalian deoxyribonucleoside kinases: 4-20,000 fold
[2]; thymidine, versus HSV1-TK
  turnover of thymidine, higher than catalysed by HSV1 thymidine kinase: 70 fold
